In paper PMC11695723, “MCM2-7 ring closure involves the Mcm5 C-terminus and triggers Mcm4 ATP hydrolysis” (Nature Communications, 2025):

What was measured:
Settings in all cases: both partners purified
[1] = target: T1, Mcm3 (HA-tagged) (S. cerevisiae, UniProt P24279 1-971); assay: pull-down; 150 nM MCM2-7 alone in pre-RC buffer, bound to anti-HA magnetic beads by the HA-tag on Mcm3, low salt wash (pre-RC buffer), HA peptide elution, silver stain
T1 construct: Mcm3, S. cerevisiae; subunit of the MCM2-7 hexamer; bait of the anti-HA bead pulldowns; source: S. cerevisiae, galactose-induced, purified as a subunit of MCM2-7 (anti-HA beads, HA peptide, gel filtration)

[2] = target: T2, Mcm4 (S. cerevisiae, UniProt P30665 1-933); assay: cryo-EM structure; closed-gate OCCM (ORC-Cdc6-Cdt1-MCM2-7) on ARS1 DNA with ATPγS; focused 3D classification of the particles of ref. 13; about 10% of the particles; 6.1 Å
T2 construct: Mcm4, S. cerevisiae; subunit of the MCM2-7 hexamer; source: S. cerevisiae, galactose-induced, purified as a subunit of MCM2-7 (anti-HA beads, HA peptide, gel filtration)
T2 sequence: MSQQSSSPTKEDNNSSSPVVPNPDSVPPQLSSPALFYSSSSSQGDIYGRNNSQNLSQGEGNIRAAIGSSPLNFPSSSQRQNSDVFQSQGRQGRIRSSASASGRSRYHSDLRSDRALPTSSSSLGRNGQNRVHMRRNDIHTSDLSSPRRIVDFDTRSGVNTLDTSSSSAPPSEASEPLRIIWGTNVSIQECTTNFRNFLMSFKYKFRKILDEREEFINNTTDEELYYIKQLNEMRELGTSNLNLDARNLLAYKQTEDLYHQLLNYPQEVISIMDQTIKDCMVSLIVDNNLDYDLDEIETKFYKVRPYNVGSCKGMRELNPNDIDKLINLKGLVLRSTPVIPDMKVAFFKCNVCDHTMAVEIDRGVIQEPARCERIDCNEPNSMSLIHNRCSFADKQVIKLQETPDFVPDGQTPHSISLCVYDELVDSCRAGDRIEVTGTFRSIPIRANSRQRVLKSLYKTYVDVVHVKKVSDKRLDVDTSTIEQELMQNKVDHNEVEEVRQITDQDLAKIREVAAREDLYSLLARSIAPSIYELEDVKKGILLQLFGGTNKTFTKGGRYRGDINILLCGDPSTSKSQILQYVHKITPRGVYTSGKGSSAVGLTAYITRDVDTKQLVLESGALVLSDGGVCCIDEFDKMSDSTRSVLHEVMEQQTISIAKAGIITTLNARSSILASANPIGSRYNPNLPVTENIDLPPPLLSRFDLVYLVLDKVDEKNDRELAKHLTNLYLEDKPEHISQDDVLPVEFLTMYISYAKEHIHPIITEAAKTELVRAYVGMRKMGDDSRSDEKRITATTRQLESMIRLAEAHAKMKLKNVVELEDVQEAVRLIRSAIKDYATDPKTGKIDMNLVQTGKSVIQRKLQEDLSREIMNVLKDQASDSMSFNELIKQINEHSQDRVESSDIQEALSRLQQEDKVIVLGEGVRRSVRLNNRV

[3] = target: T3, Origin Recognition Complex (ORC) (UniProt P54784 1-914; P32833 1-620; P54790 1-616; P54791 1-529; P50874 1-479; P38826 …); assay: as above
T3 construct: Orc1; Orc2; Orc3; Orc4; Orc5; Orc6; in all assays ORC stood with ARS1 DNA; source: Hi-5 cells, baculovirus (Orc1,6; Orc2,5; Orc3,4), purified (ammonium sulphate, SP Sepharose, Mono Q, Superdex 200); copies: + + + + +

[4] = target: T4, MCM2-7 (wild type) (S. cerevisiae, UniProt P29469 1-868; P24279 1-971; P30665 1-933; P29496 1-775; P53091 1-1017; P38132 …); assay: pull-down; pre-RC pulldown: 150 nM ORC, 300 nM Cdc6, 150 nM Cdt1, 150 nM MCM2-7 and 200 nM 290 bp ARS1 DNA in solution, anti-HA beads (HA-Mcm3), low salt wash, HA peptide elution
T4 construct: Mcm2, S. cerevisiae; Mcm3, S. cerevisiae; Mcm4, S. cerevisiae; Mcm5, S. cerevisiae; Mcm6, S. cerevisiae; Mcm7, S. cerevisiae; hetero-hexamer; plasmids and strains are in Supplementary Data 1; also called WT MCM2-7; copies: + + + + +

[5] = target: T5, MCM2-7-ΔC5 (S. cerevisiae, UniProt P29469 1-868; P24279 1-971; P30665 1-933; P29496 1-692; P53091 1-1017; P38132 …); assay: as above
T5 construct: Mcm2, S. cerevisiae; Mcm3, S. cerevisiae; Mcm4, S. cerevisiae; Mcm5, S. cerevisiae, deletion of residues 693-775 (C-terminal extension C5: linker and WHD); Mcm6, S. cerevisiae; Mcm7, S. cerevisiae; also called mcm5 (Δ693-775); copies: + + + + +

[6] = target: T6, Mcm5 (S. cerevisiae, UniProt P29496 1-775); assay: cryo-EM structure; closed-gate OCCM (ORC-Cdc6-Cdt1-MCM2-7) on ARS1 DNA with ATPγS; focused 3D classification of the particles of ref. 13; about 10% of the particles; 6.1 Å
T6 construct: Mcm5, S. cerevisiae; subunit of the MCM2-7 hexamer; source: S. cerevisiae, galactose-induced, purified as a subunit of MCM2-7 (anti-HA beads, HA peptide, gel filtration)
T6 sequence: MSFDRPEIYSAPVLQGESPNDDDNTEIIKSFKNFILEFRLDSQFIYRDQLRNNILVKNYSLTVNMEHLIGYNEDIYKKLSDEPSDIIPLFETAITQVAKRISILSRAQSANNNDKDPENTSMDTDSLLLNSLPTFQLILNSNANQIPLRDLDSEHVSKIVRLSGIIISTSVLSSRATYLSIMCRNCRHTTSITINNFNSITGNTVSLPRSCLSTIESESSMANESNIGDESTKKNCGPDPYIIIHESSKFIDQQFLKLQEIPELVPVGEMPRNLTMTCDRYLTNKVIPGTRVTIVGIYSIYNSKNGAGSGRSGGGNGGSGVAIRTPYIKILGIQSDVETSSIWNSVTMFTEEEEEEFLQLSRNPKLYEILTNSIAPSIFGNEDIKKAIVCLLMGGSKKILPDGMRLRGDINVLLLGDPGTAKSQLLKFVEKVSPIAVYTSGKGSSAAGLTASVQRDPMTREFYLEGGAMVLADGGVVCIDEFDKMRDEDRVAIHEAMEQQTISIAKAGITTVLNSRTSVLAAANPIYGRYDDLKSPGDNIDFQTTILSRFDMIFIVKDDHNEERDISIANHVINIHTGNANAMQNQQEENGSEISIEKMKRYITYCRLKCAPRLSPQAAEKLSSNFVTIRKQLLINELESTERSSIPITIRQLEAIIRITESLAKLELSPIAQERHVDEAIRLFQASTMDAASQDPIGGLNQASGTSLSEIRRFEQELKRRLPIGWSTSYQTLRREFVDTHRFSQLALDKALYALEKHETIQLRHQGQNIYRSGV

T1 sequence (P24279 whole entry): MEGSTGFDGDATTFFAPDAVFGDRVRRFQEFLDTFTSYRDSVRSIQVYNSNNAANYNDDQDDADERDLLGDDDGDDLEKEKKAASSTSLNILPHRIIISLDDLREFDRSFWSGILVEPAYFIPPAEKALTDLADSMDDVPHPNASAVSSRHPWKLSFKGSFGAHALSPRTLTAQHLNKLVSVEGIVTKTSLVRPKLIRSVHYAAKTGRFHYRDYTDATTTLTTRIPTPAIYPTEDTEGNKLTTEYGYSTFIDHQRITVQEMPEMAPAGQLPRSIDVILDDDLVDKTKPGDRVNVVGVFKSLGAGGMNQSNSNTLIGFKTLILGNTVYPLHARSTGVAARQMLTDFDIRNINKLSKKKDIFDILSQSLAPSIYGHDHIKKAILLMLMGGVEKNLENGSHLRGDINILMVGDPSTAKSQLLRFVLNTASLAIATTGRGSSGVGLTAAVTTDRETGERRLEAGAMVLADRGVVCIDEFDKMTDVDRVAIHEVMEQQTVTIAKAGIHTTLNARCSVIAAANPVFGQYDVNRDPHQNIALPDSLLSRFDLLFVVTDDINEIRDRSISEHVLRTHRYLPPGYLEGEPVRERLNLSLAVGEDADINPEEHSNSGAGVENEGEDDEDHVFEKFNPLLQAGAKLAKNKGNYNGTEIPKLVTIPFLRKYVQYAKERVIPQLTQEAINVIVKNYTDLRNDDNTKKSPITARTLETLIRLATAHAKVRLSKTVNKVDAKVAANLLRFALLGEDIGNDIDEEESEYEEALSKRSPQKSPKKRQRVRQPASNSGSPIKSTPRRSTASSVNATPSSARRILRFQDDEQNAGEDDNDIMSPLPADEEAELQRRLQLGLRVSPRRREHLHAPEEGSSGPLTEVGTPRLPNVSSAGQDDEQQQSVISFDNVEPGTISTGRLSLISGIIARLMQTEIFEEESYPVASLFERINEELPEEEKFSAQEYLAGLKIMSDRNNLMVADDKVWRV
T5 sequence (P29469 whole entry, stated change not applied, chain 1 of 3, the tested form may be a part): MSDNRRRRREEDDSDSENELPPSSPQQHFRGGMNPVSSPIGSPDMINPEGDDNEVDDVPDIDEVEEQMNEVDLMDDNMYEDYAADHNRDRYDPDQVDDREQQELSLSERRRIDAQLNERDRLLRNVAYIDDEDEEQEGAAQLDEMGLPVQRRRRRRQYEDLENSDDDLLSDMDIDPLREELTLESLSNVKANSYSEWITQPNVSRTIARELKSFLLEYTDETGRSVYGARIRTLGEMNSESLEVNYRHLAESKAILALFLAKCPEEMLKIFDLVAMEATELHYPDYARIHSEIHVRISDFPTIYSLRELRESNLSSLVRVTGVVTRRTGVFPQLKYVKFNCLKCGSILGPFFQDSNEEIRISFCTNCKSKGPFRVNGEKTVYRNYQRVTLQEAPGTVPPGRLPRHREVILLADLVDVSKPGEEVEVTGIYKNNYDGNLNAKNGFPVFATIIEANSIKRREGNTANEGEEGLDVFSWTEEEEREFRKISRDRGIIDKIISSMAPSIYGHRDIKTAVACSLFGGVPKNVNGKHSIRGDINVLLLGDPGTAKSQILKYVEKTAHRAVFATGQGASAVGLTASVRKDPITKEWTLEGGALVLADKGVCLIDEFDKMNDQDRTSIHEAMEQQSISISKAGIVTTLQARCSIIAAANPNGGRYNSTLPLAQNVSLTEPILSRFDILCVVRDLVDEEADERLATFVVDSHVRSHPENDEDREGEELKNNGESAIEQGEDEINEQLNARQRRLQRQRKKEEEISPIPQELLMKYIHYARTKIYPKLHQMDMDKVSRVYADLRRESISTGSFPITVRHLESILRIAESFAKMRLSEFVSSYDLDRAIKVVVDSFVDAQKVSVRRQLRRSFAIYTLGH
T5 sequence (P24279 whole entry, stated change not applied, chain 2 of 3, the tested form may be a part): as the sequence (P24279 whole entry) above
T5 sequence (P53091 whole entry, stated change not applied, chain 5 of 3, the tested form may be a part): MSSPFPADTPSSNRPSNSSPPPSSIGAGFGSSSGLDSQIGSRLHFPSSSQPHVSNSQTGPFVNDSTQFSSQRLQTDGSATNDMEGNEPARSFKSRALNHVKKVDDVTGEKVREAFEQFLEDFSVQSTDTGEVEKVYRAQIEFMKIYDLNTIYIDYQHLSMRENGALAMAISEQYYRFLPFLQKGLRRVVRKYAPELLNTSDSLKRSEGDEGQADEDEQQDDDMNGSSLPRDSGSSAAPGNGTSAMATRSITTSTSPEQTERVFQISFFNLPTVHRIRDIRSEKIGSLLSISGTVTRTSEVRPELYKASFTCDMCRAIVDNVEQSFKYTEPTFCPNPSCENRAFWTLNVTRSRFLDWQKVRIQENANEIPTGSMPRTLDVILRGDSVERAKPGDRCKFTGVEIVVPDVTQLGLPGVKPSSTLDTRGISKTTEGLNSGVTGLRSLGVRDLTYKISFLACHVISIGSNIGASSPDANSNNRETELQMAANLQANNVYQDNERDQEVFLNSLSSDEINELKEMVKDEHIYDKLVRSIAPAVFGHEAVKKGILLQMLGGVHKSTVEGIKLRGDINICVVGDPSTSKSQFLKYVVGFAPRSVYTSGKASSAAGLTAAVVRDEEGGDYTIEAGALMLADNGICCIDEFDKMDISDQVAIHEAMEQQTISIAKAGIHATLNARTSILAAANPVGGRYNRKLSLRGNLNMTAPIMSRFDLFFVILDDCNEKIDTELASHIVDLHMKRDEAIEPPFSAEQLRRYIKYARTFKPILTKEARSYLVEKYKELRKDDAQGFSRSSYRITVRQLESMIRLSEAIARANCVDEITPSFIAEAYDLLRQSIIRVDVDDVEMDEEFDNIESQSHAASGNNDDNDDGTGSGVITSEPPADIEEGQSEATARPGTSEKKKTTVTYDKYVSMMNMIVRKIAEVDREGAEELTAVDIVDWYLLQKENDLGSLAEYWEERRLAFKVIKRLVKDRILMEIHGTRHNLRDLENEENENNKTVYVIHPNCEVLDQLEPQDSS
T4 sequence (P29469 whole entry, chain 1 of 3): as the sequence (P29469 whole entry, stated change not applied, chain 1 of 3, the tested form may be a part) above
T4 sequence (P24279 whole entry, chain 2 of 3): as the sequence (P24279 whole entry) above
T4 sequence (P53091 whole entry, chain 5 of 3): as the sequence (P53091 whole entry, stated change not applied, chain 5 of 3, the tested form may be a part) above

B1: Mcm7 (natural protein, S. cerevisiae)
chain: MSAALPSIQLPVDYNNLFNEITDFLVTFKQDTLSSDATRNENEDENLDAENIEQHLLEKGPKYMAMLQKVANRELNSVIIDLDDILQYQNEKFLQGTQADDLVSAIQQNANHFTELFCRAIDNNMPLPTKEIDYKDDVLDVILNQRRLRNERMLSDRTNEIRSENLMDTTMDPPSSMNDALREVVEDETELFPPNLTRRYFLYFKPLSQNCARRYRKKAISSKPLSVRQIKGDFLGQLITVRGIITRVSDVKPAVEVIAYTCDQCGYEVFQEVNSRTFTPLSECTSEECSQNQTKGQLFMSTRASKFSAFQECKIQELSQQVPVGHIPRSLNIHVNGTLVRSLSPGDIVDVTGIFLPAPYTGFKALKAGLLTETYLEAQFVRQHKKKFASFSLTSDVEERVMELITSGDVYNRLAKSIAPEIYGNLDVKKALLLLLVGGVDKRVGDGMKIRGDINVCLMGDPGVAKSQLLKAICKISPRGVYTTGKGSSGVGLTAAVMKDPVTDEMILEGGALVLADNGICCIDEFDKMDESDRTAIHEVMEQQTISISKAGINTTLNARTSILAAANPLYGRYNPRLSPLDNINLPAALLSRFDILFLMLDIPSRDDDEKLAEHVTYVHMHNKQPDLDFTPVEPSKMREYIAYAKTKRPVMSEAVNDYVVQAYIRLRQDSKREMDSKFSFGQATPRTLLGIIRLSQALAKLRLADMVDIDDVEEALRLVRVSKESLYQETNKSKEDESPTTKIFTIIKKMLQETGKNTLSYENIVKTVRLRGFTMLQLSNCIQEYSYLNVWHLINEGNTLKFVDDGTMDTDQEDSLVSTPKLAPQTTASANVSAQDSDIDLQDA
notes: Mcm7, S. cerevisiae; subunit of the MCM2-7 hexamer; source: S. cerevisiae, galactose-induced, purified as a subunit of MCM2-7 (anti-HA beads, HA peptide, gel filtration)
binding result [1]: binds
binding result [2]: binds

B2: Mcm5 lacking its C-terminus (subunit of MCM2-7-ΔC5) (domain or fragment, S. cerevisiae, UniProt P29496 1-692, looked up)
chain: MSFDRPEIYSAPVLQGESPNDDDNTEIIKSFKNFILEFRLDSQFIYRDQLRNNILVKNYSLTVNMEHLIGYNEDIYKKLSDEPSDIIPLFETAITQVAKRISILSRAQSANNNDKDPENTSMDTDSLLLNSLPTFQLILNSNANQIPLRDLDSEHVSKIVRLSGIIISTSVLSSRATYLSIMCRNCRHTTSITINNFNSITGNTVSLPRSCLSTIESESSMANESNIGDESTKKNCGPDPYIIIHESSKFIDQQFLKLQEIPELVPVGEMPRNLTMTCDRYLTNKVIPGTRVTIVGIYSIYNSKNGAGSGRSGGGNGGSGVAIRTPYIKILGIQSDVETSSIWNSVTMFTEEEEEEFLQLSRNPKLYEILTNSIAPSIFGNEDIKKAIVCLLMGGSKKILPDGMRLRGDINVLLLGDPGTAKSQLLKFVEKVSPIAVYTSGKGSSAAGLTASVQRDPMTREFYLEGGAMVLADGGVVCIDEFDKMRDEDRVAIHEAMEQQTISIAKAGITTVLNSRTSVLAAANPIYGRYDDLKSPGDNIDFQTTILSRFDMIFIVKDDHNEERDISIANHVINIHTGNANAMQNQQEENGSEISIEKMKRYITYCRLKCAPRLSPQAAEKLSSNFVTIRKQLLINELESTERSSIPITIRQLEAIIRITESLAKLELSPIAQERHVDEAIRLFQASTMDAA
notes: Mcm5, S. cerevisiae, deletion of residues 693-775 (C5); also called mcm5ΔC5; mcm5 (Δ693-775); source: S. cerevisiae, galactose-induced, purified as a subunit of MCM2-7-ΔC5 (anti-HA beads, HA peptide, gel filtration)
binding result [1]: binds

B3: Cdc6 (natural protein)
chain: MSAIPITPTKRIRRNLFDDAPATPPRPLKRKKLQFTDVTPESSPEKLQFGSQSIFLRTKALLQKSSELVNLNSSDGALPARTAEYEQVMNFLAKAISEHRSDSLYITGPPGTGKTAQLDMIIRQKFQSLPLSLSTPRSKDVLRHTNPNLQNLSWFELPDGRLESVAVTSINCISLGEPSSIFQKIFDSFQDLNGPTLQIKNMQHLQKFLEPYHKKTTFVVVLDEMDRLLHANTSETQSVRTILELFLLAKLPTVSFVLIGMANSLDMKDRFLSRLNLDRGLLPQTIVFQPYTAEQMYEIVIQKMSSLPTIIFQPMAIKFAAKKCAGNTGDLRKLFDVLRGSIEIYELEKRFLLSPTRGSLNSAQVPLTPTTSPVKKSYPEPQGKIGLNYIAKVFSKFVNNNSTRTRIAKLNIQQKLILCTIIQSLKLNSDATIDESFDHYIKAITKTDTLAPLQRNEFLEICTILETCGLVSIKKTKCKGKTKRFVDKIDVDLDMREFYDEMTKISILKPFLH
notes: Cdc6; also called WT Cdc6; source: E. coli BL21 codon-plus, purified (glutathione-agarose, PreScission Protease, hydroxyapatite)
binding result [3]: binds
binding result [4]: binds
binding result [5]: binds

B4: Orc3 (natural protein)
chain: MSDLNQSKKMNVSEFADAQRSHYTVYPSLPQSNKNDKHIPFVKLLSGKESEVNVEKRWELYHQLHSHFHDQVDHIIDNIEADLKAEISDLLYSETTQKRRCFNTIFLLGSDSTTKIELKDESSRYNVLIELTPKESPNVRMMLRRSMYKLYSAADAEEHPTIKYEDINDEDGDFTEQNNDVSYDLSLVENFKRLFGKDLAMVFNFKDVDSINFNTLDNFIILLKSAFKYDHVKISLIFNINTNLSNIEKNLRQSTIRLLKRNYHKLDVSSNKGFKYGNQIFQSFLDTVDGKLNLSDRFVEFILSKMANNTNHNLQLLTKMLDYSLMSYFFQNAFSVFIDPVNVDFLNDDYLKILSRCPTFMFFVEGLIKQHAPADEILSLLTNKNRGLEEFFVEFLVRENPINGHAKFVARFLEEELNITNFNLIELYHNLLIGKLDSYLDRWSACKEYKDRLHFEPIDTIFQELFTLDNRSGLLTQSIFPSYKSNIEDNLLSWEQVLPSLDKENYDTLSGDLDKIMAPVLGQLFKLYREANMTINIYDFYIAFRETLPKEEILNFIRKDPSNTKLLELAETPDAFDKVALILFMQAIFAFENMGLIKFQSTKSYDLVEKCVWRGI
notes: Orc3; subunit of ORC; source: Hi-5 cells, baculovirus, purified as a subunit of ORC
binding result [6]: binds
